The text below walks through data of US20240245796A1 (PROFOUNDBIO US, published 2024).

Changes are numbered by the printed parent chain.

The target of experiment [1] is T1, cynomolgus FOLR1 protein, His Tag (ACRO F01-C52H8) (cynomolgus, UniProt A0A2K5U044 25-233).
T1 construct: Bought protein coated on ELISA plates; also called Cynomolgus/Rhesus macaque FOLR1, Protein, His Tag; not shown: His tag
Put plainly: ELISA, coated cyno FOLR1-His, supernatant 1x. Background: ELISA stands for enzyme-linked immunosorbent assay.

Experiment [2] addresses T2, human FOLR1 protein, His Tag (ACRO FO1-H52H1) (human, UniProt P15328 25-233).
T2 construct: Bought protein coated on ELISA plates; not shown: His tag
Put plainly: ratio of OD450 on hFOLR1 to OD450 on anti-human IgG Fc.

Experiment [3] concerns the target T2, human FOLR1 protein, His Tag (ACRO …). Description: ELISA, coated hFOLR1-His, supernatant 1x.
The target is the same in experiment [4]. Put plainly: ELISA, coated hFOLR1-His, supernatant 25x.
Experiment [5] shares this target. Description: ELISA, coated hFOLR1-His, HEK293 supernatant.
For experiment [6], the target named is T1, cynomolgus FOLR1 protein, His Tag (ACRO …). Description: ELISA, coated cyno FOLR1-His, supernatant 25x.
In experiment [7] the target is T2, human FOLR1 protein, His Tag (ACRO …). Description: ELISA, coated hFOLR1-His, supernatant 5x.
Experiment [8] deals with T1, cynomolgus FOLR1 protein, His Tag (ACRO …). Put plainly: ELISA, coated cyno FOLR1-His, supernatant 5x.

T2 sequence (P15328 25-233 limits assumed): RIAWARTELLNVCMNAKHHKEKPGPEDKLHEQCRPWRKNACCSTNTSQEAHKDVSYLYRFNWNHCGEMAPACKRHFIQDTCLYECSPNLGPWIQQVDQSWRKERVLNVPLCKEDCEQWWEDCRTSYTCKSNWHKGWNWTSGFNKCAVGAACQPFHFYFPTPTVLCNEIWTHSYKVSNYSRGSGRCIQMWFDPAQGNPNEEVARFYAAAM
T1 sequence (A0A2K5U044 entry or part of it): as the sequence (P15328 25-233 limits assumed) above, with I2T, W4R, R37K, A146P, H171Y counted along it

B1: F40 (antibody, V domains shown)
VH: EVQLLESGGGVVQPGRSLRLSCAASGFTFSSYAMHWVRQAPGKGLEWVAVISYDGSNKYYADSVKGRFIISRDNSKNTVYLQMNSLRAEDTAVYYCARPTYVFTYTGSSFDYWGQGTQVTVSS
VL: DIQVTQSPSSLSASLGDTVSITCRASRGLTDSVAWYQQKPGQAPKLLIYAASTLQSGVPSRFGGSGSGSYFTLTITSLQPEDVATYYCQNYKSAPWTFGQGTKVEIK
notes: Tested as full-length IgG with an IgG1 Fc from HEK293, as supernatant or purified; also called clone F40; anti-FOLR1 antibody F40
Consider B1, for which the OD450 was determined as 1.35 OD450 in experiment [1]; 0.811 OD450 in experiment [3]; 0.163 OD450 in experiment [4]; 2.39 OD450 in experiment [5]; 0.924 OD450 in experiment [6]; 0.382 OD450 in experiment [7]. Also, in experiment [8], the OD450 was 1.11 OD450. In experiment [2], the “Target binding/IgG level” value stood at 1.02.

B2: F1 (antibody, V domains shown)
VH: B1 VH with A33G, I69T, V79L, T100R, Y101A, V102Y, F103Y, T104G, Y105A, T106Y
VL: EIVMTQSPSSVSASVGDRVAITCRASQGISSWLAWYQQKPGKAPKLLIYAASSLQSGVPSRFSGSGSGTDFTLTISSLQPEDFATYYCQQSYSTPLTFGGGTKVDIK
notes: also called clone F1; anti-FOLR1 antibody F1
Regarding B2, the OD450 worked out at 1.38 OD450 in experiment [1]; 1.66 OD450 in experiment [3]; 1.18 OD450 in experiment [4]; 2.43 OD450 in experiment [5]; 0.994 OD450 in experiment [6]; 1.45 OD450 in experiment [7]. In experiment [8], this molecule registered an OD450 of 1.26 OD450. The “Target binding/IgG level” value in experiment [2] is 1.08.

B3: F112 (antibody, V domains shown)
VH: EVQLLESGGGVVQPGRSLRLSCAASGFTFSSYGMHWVRQAPGKGLEWVAVISYDGSNKYYADSVKGRFTISRHNSKNTLYLQMNSLRAEDTAVYYCARPRAYYGAYGSSFDYWGQGTQVTVSS
VL: B2 VL
notes: Tested as full-length IgG with an IgG1 Fc from HEK293, as supernatant or purified; also called clone F112; anti-FOLR1 antibody F112
For B3, the OD450 in experiment [1] turned out to be 1.26 OD450; in experiment [3], 1.56 OD450; in experiment [4] it was 1.17 OD450; in experiment [5], 2.35 OD450; in experiment [6] it was 0.933 OD450; in experiment [7], 1.42 OD450. In experiment [8], this molecule displayed an OD450 of 1.21 OD450. In addition, the “Target binding/IgG level” value in experiment [2] came out at 1.12.

B4: F123 (antibody, V domains shown)
VH: B3 VH with G15E, H73A
VL: B2 VL
notes: Tested as full-length IgG with an IgG1 Fc from HEK293, as supernatant or purified; also called clone F123; anti-FOLR1 antibody F123
Regarding B4, the OD450 in experiment [1] was determined as 1.36 OD450; in experiment [3] it was 1.72 OD450; in experiment [4], 1.33 OD450; in experiment [5], 2.32 OD450; in experiment [6] it was 1.07 OD450; in experiment [7], 1.47 OD450. In experiment [8], this molecule returned an OD450 of 1.3 OD450. The “Target binding/IgG level” value in experiment [2] is 1.06.

B5: F138 (antibody, V domains shown)
VH: B3 VH with R72T
VL: B2 VL
notes: Tested as full-length IgG with an IgG1 Fc, HEK293 supernatant; also called clone F138; anti-FOLR1 antibody F138
As for B5, the OD450 was found to be 1.14 OD450 in experiment [1]; 1.64 OD450 in experiment [3]; 1.83 OD450 in experiment [4]; 2.41 OD450 in experiment [5]; 1.17 OD450 in experiment [6]; 1.69 OD450 in experiment [7]. The OD450 in experiment [8] stood at 1.14 OD450. Further, the “Target binding/IgG level” value in experiment [2] was determined as 1.2.

B6: F100 (antibody, V domains shown)
VH: B3 VH with H73P
VL: B2 VL
notes: Tested as full-length IgG with an IgG1 Fc from HEK293, as supernatant or purified; also called clone F100; anti-FOLR1 antibody F100
With B6, the OD450 in experiment [1] turned out to be 1.16 OD450; in experiment [3] it was 1.61 OD450; in experiment [4], 1.18 OD450; in experiment [5] it was 2.3 OD450; in experiment [6], 0.875 OD450; in experiment [7], 1.53 OD450. In experiment [8], this molecule showed an OD450 of 1.03 OD450. The “Target binding/IgG level” value in experiment [2] was 1.48.

B7: F8 (antibody, V domains shown)
VH: B3 VH with P14H, H73D
VL: B2 VL
notes: Tested as full-length IgG with an IgG1 Fc from HEK293, as supernatant or purified; also called clone F8; anti-FOLR1 antibody F8
As to B7, the OD450 in experiment [1] came to 0.896 OD450; in experiment [3], 1.67 OD450; in experiment [4] it was 1.31 OD450; in experiment [5], 2.45 OD450; in experiment [6], 1.06 OD450; in experiment [7] it was 1.65 OD450. This molecule also registered an OD450 in experiment [8] of 1.28 OD450. In addition, in experiment [2], the “Target binding/IgG level” value came to 1.12.

B8: F26 (antibody, V domains shown)
VH: B3 VH with P14R, H73D, Q82P
VL: B2 VL
notes: Tested as full-length IgG with an IgG1 Fc from HEK293, as supernatant or purified; also called clone F26; anti-FOLR1 antibody F26
Take B8: the OD450 in experiment [1] came out at 1.24 OD450; in experiment [3], 1.64 OD450; in experiment [4] it was 1.48 OD450; in experiment [5] it was 2.43 OD450; in experiment [6] it was 1.02 OD450; in experiment [7] it was 1.51 OD450. Also, in experiment [8], the OD450 is 1.21 OD450. Besides, in experiment [2], the “Target binding/IgG level” value was 1.21.

B9: F48 (antibody, V domains shown)
VH: B3 VH with H73D, Q82H
VL: B2 VL
notes: Tested as full-length IgG with an IgG1 Fc from HEK293, as supernatant or purified; also called clone F48; anti-FOLR1 antibody F48
Regarding B9, the OD450 in experiment [1] is 1.15 OD450; in experiment [3], 1.56 OD450; in experiment [4], 1.29 OD450; in experiment [5], 2.54 OD450; in experiment [6], 0.908 OD450; in experiment [7] it was 1.59 OD450. In experiment [8], this molecule displayed an OD450 of 1.04 OD450. In experiment [2], the “Target binding/IgG level” value was determined as 1.12.
